This note sets out measurements from patent publication US20140087995A1 (published 2014).

B1: N^ε1-[(4S)-4-carboxy-4-[[(4S)-4-carboxy-4-(19-carboxynonadecanoylamino)butanoyl]amino]butanoyl]-[Glu14,Arg17,Pro21,Pro27,Pro34,Arg35]-h-amylin (peptide)
peptide: K([γGlu-γGlu-C20 diacid])CNTATCATQRLAEFLRHSSPNFGAIPSSTNVGPRTY-NH2
modifications: disulfide 2-7; N-terminus assumed
SMILES: CC[C@H](C)[C@H](NC(=O)[C@H](C)NC(=O)CNC(=O)[C@H](Cc1ccccc1)NC(=O)[C@H](CC(N)=O)NC(=O)[C@@H]1CCCN1C(=O)[C@H](CO)NC(=O)[C@H](CO)NC(=O)[C@H](Cc1c[nH]cn1)NC(=O)[C@H](CCCNC(=N)N)NC(=O)[C@H](CC(C)C)NC(=O)[C@H](Cc1ccccc1)NC(=O)[C@H](CCC(=O)O)NC(=O)[C@H](C)NC(=O)[C@H](CC(C)C)NC(=O)[C@H](CCCNC(=N)N)NC(=O)[C@H](CCC(N)=O)NC(=O)[C@@H](NC(=O)[C@H](C)NC(=O)[C@@H]1CSSC[C@H](NC(=O)[C@@H](N)CCCCNC(=O)CC[C@H](NC(=O)CC[C@H](NC(=O)CCCCCCCCCCCCCCCCCCC(=O)O)C(=O)O)C(=O)O)C(=O)N[C@@H](CC(N)=O)C(=O)N[C@@H]([C@@H](C)O)C(=O)N[C@@H](C)C(=O)N[C@@H]([C@@H](C)O)C(=O)N1)[C@@H](C)O)C(=O)N1CCC[C@H]1C(=O)N[C@@H](CO)C(=O)N[C@@H](CO)C(=O)N[C@H](C(=O)N[C@@H](CC(N)=O)C(=O)N[C@H](C(=O)NCC(=O)N1CCC[C@H]1C(=O)N[C@@H](CCCNC(=N)N)C(=O)N[C@H](C(=O)N[C@@H](Cc1ccc(O)cc1)C(N)=O)[C@@H](C)O)C(C)C)[C@@H](C)O
notes: also called compound 110
B2: N^ε1-[(4S)-4-carboxy-4-[[(4S)-4-carboxy-4-(19-carboxynonadecanoylamino)butanoyl]amino]butanoyl]-[Ser14,Arg17,Pro21,Pro27,Pro34,Glu35]-h-amylin (peptide)
peptide: K([γGlu-γGlu-C20 diacid])CNTATCATQRLASFLRHSSPNFGAIPSSTNVGPETY-NH2
modifications: disulfide 2-7; N-terminus assumed
SMILES: CC[C@H](C)[C@H](NC(=O)[C@H](C)NC(=O)CNC(=O)[C@H](Cc1ccccc1)NC(=O)[C@H](CC(N)=O)NC(=O)[C@@H]1CCCN1C(=O)[C@H](CO)NC(=O)[C@H](CO)NC(=O)[C@H](Cc1c[nH]cn1)NC(=O)[C@H](CCCNC(=N)N)NC(=O)[C@H](CC(C)C)NC(=O)[C@H](Cc1ccccc1)NC(=O)[C@H](CO)NC(=O)[C@H](C)NC(=O)[C@H](CC(C)C)NC(=O)[C@H](CCCNC(=N)N)NC(=O)[C@H](CCC(N)=O)NC(=O)[C@@H](NC(=O)[C@H](C)NC(=O)[C@@H]1CSSC[C@H](NC(=O)[C@@H](N)CCCCNC(=O)CC[C@H](NC(=O)CC[C@H](NC(=O)CCCCCCCCCCCCCCCCCCC(=O)O)C(=O)O)C(=O)O)C(=O)N[C@@H](CC(N)=O)C(=O)N[C@@H]([C@@H](C)O)C(=O)N[C@@H](C)C(=O)N[C@@H]([C@@H](C)O)C(=O)N1)[C@@H](C)O)C(=O)N1CCC[C@H]1C(=O)N[C@@H](CO)C(=O)N[C@@H](CO)C(=O)N[C@H](C(=O)N[C@@H](CC(N)=O)C(=O)N[C@H](C(=O)NCC(=O)N1CCC[C@H]1C(=O)N[C@@H](CCC(=O)O)C(=O)N[C@H](C(=O)N[C@@H](Cc1ccc(O)cc1)C(N)=O)[C@@H](C)O)C(C)C)[C@@H](C)O
notes: also called compound 120
B3: N^ε1-[(4S)-4-carboxy-4-[[(4S)-4-carboxy-4-(19-carboxynonadecanoylamino)butanoyl]amino]butanoyl]-[Glu14,Arg17,Pro21,Pro27,Pro34,Phe37]-h-amylin (peptide)
peptide: K([γGlu-γGlu-C20 diacid])CNTATCATQRLAEFLRHSSPNFGAIPSSTNVGPNTF-NH2
modifications: disulfide 2-7; N-terminus assumed
SMILES: CC[C@H](C)[C@H](NC(=O)[C@H](C)NC(=O)CNC(=O)[C@H](Cc1ccccc1)NC(=O)[C@H](CC(N)=O)NC(=O)[C@@H]1CCCN1C(=O)[C@H](CO)NC(=O)[C@H](CO)NC(=O)[C@H](Cc1c[nH]cn1)NC(=O)[C@H](CCCNC(=N)N)NC(=O)[C@H](CC(C)C)NC(=O)[C@H](Cc1ccccc1)NC(=O)[C@H](CCC(=O)O)NC(=O)[C@H](C)NC(=O)[C@H](CC(C)C)NC(=O)[C@H](CCCNC(=N)N)NC(=O)[C@H](CCC(N)=O)NC(=O)[C@@H](NC(=O)[C@H](C)NC(=O)[C@@H]1CSSC[C@H](NC(=O)[C@@H](N)CCCCNC(=O)CC[C@H](NC(=O)CC[C@H](NC(=O)CCCCCCCCCCCCCCCCCCC(=O)O)C(=O)O)C(=O)O)C(=O)N[C@@H](CC(N)=O)C(=O)N[C@@H]([C@@H](C)O)C(=O)N[C@@H](C)C(=O)N[C@@H]([C@@H](C)O)C(=O)N1)[C@@H](C)O)C(=O)N1CCC[C@H]1C(=O)N[C@@H](CO)C(=O)N[C@@H](CO)C(=O)N[C@H](C(=O)N[C@@H](CC(N)=O)C(=O)N[C@H](C(=O)NCC(=O)N1CCC[C@H]1C(=O)N[C@@H](CC(N)=O)C(=O)N[C@H](C(=O)N[C@@H](Cc1ccccc1)C(N)=O)[C@@H](C)O)C(C)C)[C@@H](C)O
B4: N^-1-[(4S)-4-carboxy-4-(19-carboxynonadecanoylamino)butanoyl]-Gly[Arg1,His14,Arg17,Pro21,Pro27,His34]-h-amylin (peptide)
peptide: {C20 diacid-γGlu}-GRCNTATCATQRLAHFLRHSSPNFGAIPSSTNVGHNTY-NH2
modifications: disulfide 3-8
SMILES: CC[C@H](C)[C@H](NC(=O)[C@H](C)NC(=O)CNC(=O)[C@H](Cc1ccccc1)NC(=O)[C@H](CC(N)=O)NC(=O)[C@@H]1CCCN1C(=O)[C@H](CO)NC(=O)[C@H](CO)NC(=O)[C@H](Cc1c[nH]cn1)NC(=O)[C@H](CCCNC(=N)N)NC(=O)[C@H](CC(C)C)NC(=O)[C@H](Cc1ccccc1)NC(=O)[C@H](Cc1c[nH]cn1)NC(=O)[C@H](C)NC(=O)[C@H](CC(C)C)NC(=O)[C@H](CCCNC(=N)N)NC(=O)[C@H](CCC(N)=O)NC(=O)[C@@H](NC(=O)[C@H](C)NC(=O)[C@@H]1CSSC[C@H](NC(=O)[C@H](CCCNC(=N)N)NC(=O)CNC(=O)CC[C@H](NC(=O)CCCCCCCCCCCCCCCCCCC(=O)O)C(=O)O)C(=O)N[C@@H](CC(N)=O)C(=O)N[C@@H]([C@@H](C)O)C(=O)N[C@@H](C)C(=O)N[C@@H]([C@@H](C)O)C(=O)N1)[C@@H](C)O)C(=O)N1CCC[C@H]1C(=O)N[C@@H](CO)C(=O)N[C@@H](CO)C(=O)N[C@H](C(=O)N[C@@H](CC(N)=O)C(=O)N[C@H](C(=O)NCC(=O)N[C@@H](Cc1c[nH]cn1)C(=O)N[C@@H](CC(N)=O)C(=O)N[C@H](C(=O)N[C@@H](Cc1ccc(O)cc1)C(N)=O)[C@@H](C)O)C(C)C)[C@@H](C)O
notes: also called compound 100

In general, IC50 refers to the concentration that inhibits the measured activity by half.

Numbered stars: 1 amine (or outer) side, 2 acyl side, 3 side chain; on linkers, the order of the positions; unused ones are H or OH. Bridge positions count the residues as written; N and C are the ends. Side chains are listed from the residue outwards. Ends that are not written are not given here. * marks the point of attachment. C20 diacid = O=C(O)CCCCCCCCCCCCCCCCCCC(=O)*; γGlu = O=C(O)[C@H](CCC(=O)[*:2])N[*:1]

The target of the first assay is T1, rat calcitonin receptor (rat, UniProt P32214 25-516).
T1 construct: whole, on cells; Membranes prepared from transiently transfected BHK tk'ts 13 cells; also called rCTR; rat calcitonin (a) receptor
T1 sequence (looked up): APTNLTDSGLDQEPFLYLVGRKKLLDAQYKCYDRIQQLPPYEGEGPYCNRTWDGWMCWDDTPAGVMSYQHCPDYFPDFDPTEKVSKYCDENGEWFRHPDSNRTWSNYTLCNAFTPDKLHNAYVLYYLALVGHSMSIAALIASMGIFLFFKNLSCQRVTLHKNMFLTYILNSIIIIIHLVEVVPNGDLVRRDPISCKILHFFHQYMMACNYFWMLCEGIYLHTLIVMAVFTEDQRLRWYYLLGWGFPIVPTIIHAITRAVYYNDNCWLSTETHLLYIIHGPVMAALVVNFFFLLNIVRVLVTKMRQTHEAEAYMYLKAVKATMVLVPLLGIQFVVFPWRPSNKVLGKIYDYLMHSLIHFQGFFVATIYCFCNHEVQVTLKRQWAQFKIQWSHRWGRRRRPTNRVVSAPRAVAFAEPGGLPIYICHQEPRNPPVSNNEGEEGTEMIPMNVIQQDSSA
Description: ratio of IC50 on rat calcitonin receptor to IC50 on rat amylin receptor.
On to B1, for which the “Ratio rCT/rAmylin binding” value is 113.

Regarding B2, the “Ratio rCT/rAmylin binding” value came out at 868.

Turning to B3, the “Ratio rCT/rAmylin binding” value worked out at 114.

On to K([γGlu-γGlu-C20 diacid])CNTATCATQRLAEFLRHSSPNFGAILSSTPVGPETY-NH2 (disulfide 2-7), for which the “Ratio rCT/rAmylin binding” value came to 74.7.

K([γGlu-γGlu-C20 diacid])CNTATCATQRLAEFLRHSSPNFGAIPSSTNVGPHTY-NH2 (disulfide 2-7 (inferred)): the “Ratio rCT/rAmylin binding” value amounted to 73.

On to B4, for which the “Ratio rCT/rAmylin binding” value came to 27.7.

The target in another assay is T2, human calcitonin receptor (human, UniProt P30988 25-474).
T2 construct: whole, on cells; Membranes from stably transfected BHK cells; also called hCTR; hCT
T2 sequence (looked up): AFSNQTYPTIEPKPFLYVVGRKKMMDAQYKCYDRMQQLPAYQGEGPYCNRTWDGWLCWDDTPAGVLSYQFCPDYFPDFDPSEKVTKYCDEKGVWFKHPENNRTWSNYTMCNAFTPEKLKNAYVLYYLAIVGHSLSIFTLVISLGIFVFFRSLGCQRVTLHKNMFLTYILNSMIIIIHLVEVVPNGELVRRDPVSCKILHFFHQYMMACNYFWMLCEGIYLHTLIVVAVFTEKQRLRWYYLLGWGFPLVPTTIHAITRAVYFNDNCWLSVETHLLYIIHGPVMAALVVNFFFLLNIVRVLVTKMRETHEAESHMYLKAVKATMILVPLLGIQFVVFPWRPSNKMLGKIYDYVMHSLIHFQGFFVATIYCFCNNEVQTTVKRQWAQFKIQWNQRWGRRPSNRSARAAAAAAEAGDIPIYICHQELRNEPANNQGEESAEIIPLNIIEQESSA
The assay can be described thus: ratio of IC50 on human calcitonin receptor to IC50 on human amylin receptor. In a few lines:
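Competition binding by SPA with cell membranes (35 ng/μL) and SPA beads in 50 mM Hepes pH 7.4 with 1 mM CaCl2, 5 mM MgCl2, 0.1% OA and 0.02% Tween20. Incubated 120 min at 25 °C with shaking, then counted.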
With B1, the “Ratio hCT/hAmylin binding” value is 53.6.

B2: the “Ratio hCT/hAmylin binding” value worked out at 45.3.

Turning to B3, the “Ratio hCT/hAmylin binding” value stood at 18.

Take K([γGlu-γGlu-C20 diacid])CNTATCATQRLAEFLRHSSPNFGAILSSTPVGPETY-NH2 (disulfide 2-7): the “Ratio hCT/hAmylin binding” value turned out to be 22.6.

As for K([γGlu-γGlu-C20 diacid])CNTATCATQRLAEFLRHSSPNFGAIPSSTNVGPHTY-NH2 (disulfide 2-7 (inferred)), the “Ratio hCT/hAmylin binding” value is 27.3.

As for B4, the “Ratio hCT/hAmylin binding” value stood at 65.3.

The target in another assay is T1, rat calcitonin receptor. Description: SPA competition vs 125I-calcitonin, membranes (Assay VIII).
As for B1, the IC50 came out at 38.3 nM.

Turning to B2, the IC50 amounted to 140 nM.

Turning to B3, the IC50 came out at 23.4 nM.

For K([γGlu-γGlu-C20 diacid])CNTATCATQRLAEFLRHSSPNFGAILSSTPVGPETY-NH2 (disulfide 2-7), the IC50 worked out at 33.5 nM.

For the molecule K([γGlu-γGlu-C20 diacid])CNTATCATQRLAEFLRHSSPNFGAIPSSTNVGPHTY-NH2 (disulfide 2-7 (inferred)), the IC50 amounted to 21 nM.

In the case of B4, the IC50 was 311 nM.

In a further assay the target is T3, rat amylin receptor (rat calcitonin receptor + rat RAMP 3) (rat, UniProt P32214 25-516; Q9JJ73 23-147).
T3 construct: whole, on cells; Membranes prepared from transiently transfected BHK tk'ts 13 cells; also called rAmylin-R; rat amylin 3(a) receptor
T3 sequence (looked up) 1: T1 sequence (looked up)
T3 sequence (looked up) 2: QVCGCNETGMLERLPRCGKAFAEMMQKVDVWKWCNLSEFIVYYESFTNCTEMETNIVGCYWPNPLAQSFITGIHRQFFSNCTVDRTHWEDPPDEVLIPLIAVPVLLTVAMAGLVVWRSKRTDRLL
The assay can be described thus: SPA competition vs 125I-rat amylin, membranes (Assay VI).
As to B1, the IC50 was determined as 0.339 nM.

With B2, the IC50 worked out at 0.161 nM.

As to B3, the IC50 was 0.205 nM.

As for K([γGlu-γGlu-C20 diacid])CNTATCATQRLAEFLRHSSPNFGAILSSTPVGPETY-NH2 (disulfide 2-7), the IC50 was found to be 0.449 nM.

In the case of K([γGlu-γGlu-C20 diacid])CNTATCATQRLAEFLRHSSPNFGAIPSSTNVGPHTY-NH2 (disulfide 2-7 (inferred)), the IC50 was 0.288 nM.

Turning to B4, the IC50 was determined as 11.2 nM.
